This series relates to Pichia pastoris GS115 yeast cells expressing luciferase, hispidin hydroxylase and coumarate-CoA ligase 1. As to the kind of experiment: Screening of PKS for hispidin-synthase activity in yeast colonies sprayed with caffeic acid. Particulars: colonies sprayed with caffeic acid solution. Type of series: cell-based. The source says:
The selected nucleotide sequences for expression in Pichia pastoris yeast cells and Nicotiana benthamiana plant cells were optimized. The resulting nucleic acids were obtained synthetically and cloned into pGAPZ vector and used for verifying ability of the expressed proteins to synthesize hispidin.
For this purpose, in genome of Pichia pastoris GS115 yeast line, constitutively expressing Neonothopanus nambi luciferase and hispidin hydroxylase, obtained according to Example 1, there was additionally introduced pGAPZ plasmid, comprising gene of
Arabidopsis thaliana coumarate-CoA ligase 1 (which nucleotide and amino acid sequence are shown in SEQ ID NOs: 140, 141), also obtained by oligonucleotide synthesis. The plasmid was linearized at restriction site AvrII and used for transformation into Pichia pastoris GS115 cells.
The obtained yeast cells, constitutively expressing Neonothopanus nambi luciferase and hispidin hydroxylase and Arabidopsis thaliana coumarate-CoA ligase 1, were […] by plasmids comprising coding PKS sequences, and dispersed in Petri dishes with RDB medium, comprising 1 M of sorbitol, 2% (weight/volume) of glucose, 1.34% (weight/volume) of yeast nitrogen base (YNB), 0.005% (weight/volume) of amino acids mixture, 0.00004% (weight/volume) of biotin and 2% (weight/volume) of agar. To identify enzymes having hispidin-synthase activity, the obtained colonies were sprayed with caffeic acid solution, detecting hispidin-synthase presence in cells by occurrence of luminescence. Luminescence emitted by colonies was detected by means of IVIS Spectrum CT (Perkin Elmer, USA). Yeast line constitutively expressing luciferase, hispidin hydroxylase and coumarate-CoA ligase 1, and also wild yeast cells were used as negative control. […] Amino acid sequences coded by then are shown in SEQ ID NOs: 119, 121, 123, 125, 127, 129, 131, 133, 135, 137, 139 respectively.

B1: SEQ ID NO: 139: plant type III polyketide synthase (PKS) (protein, listed as Piper methysticum)
chain: MSKMVEEHWAAQRARGPATVLAIGTANPPNVLYQADYPDFYFRVTKSEHMTQLKEKFKRICDKSAIRKRHLHLTEELLEKNPNICAHMAPSLDARQDIAVVEVPKLAKEAATKAIKEWGRPKSDITHLIFCTTCGVDMPGADYQLTTLLGLRPTVRRTMLYQQGCFAGGTVLRHAKDFAENNRGARVLAVCSEFTVMNFSGPSEAHLDSMVGMALFGDGASAVIVGADPDFAIERPLFQLVSTTQTIVPDSDGAIKCHLKEVGLTLHLVKNVPDLISNNMDKILEEAFAPLGIRDWNSIFWTAHPGGAAILDQLEAKLGLNKEKLKTTRTVLREYGNMSSACVCFVLDEMRRSSLEEGKTTSGEGLEWGILLGFGPGLTVETVVLRSVPISTAN
Turning to B1, the hispidin-synthase activity result is on record as “had hispidin-synthase activity”.

B2: SEQ ID NO: 121: type III polyketide synthase PKS2 from Aquilaria sinensis (protein, listed as Aquilaria sinensis)
chain: MSQAIADNAYRHHLKRAPTPGKATVLALGKAFPKQVIPQENLVEGYIRDTKCEDVSIKEKLERLCKTTTVKTRYTVMSKEILDNYPELVTEGSPTIRQRLEIANPAVVEMAKEASLACIKQWGRPAGDITHIVYVSSSEIRLPGGDLYLANELGLKNDINRIMLYFLGCYGGVTGLRVAKDIAENNPGSRILLTTSETTILGFRPPNKSRPYDLVGAALFGDGAAAVIIGANPEIGRESPFMELNFALQQFLPGTHGVIDGRLSEEGINFKLGRDLPQKIEDNIEDFCRKLMIKADGDLKEFNELFWAVHPGGPAILNRLESILDLKNGKLECSRRALMDYGNVSSNTIFYVMEYMREELKREGSEEWGLALAFGPGITFEGILLRSL
Consider B2, for which the hispidin-synthase activity result was “had hispidin-synthase activity” and the “hispidin-synthase activity, comparison among PKS” value is on record as “highest activity”.

B3: SEQ ID NO: 119: type III polyketide synthase PKS1 from Aquilaria sinensis (protein, listed as Aquilaria sinensis)
chain: MGSQDVAGGALKGVNPGKATILALGKAFPYQLVMQEFLVDGYFKNTSCKDQELKQKLARLCKTTTVKTRYVVMSEEILNKYPELAVEGIPTLKQRLDIGNEALTEMAIEASQACIKKWGRPASEITHLVYVSSSEARLPGGDLYLAQGLGLSPRTKRVVLYFMGCSGGVAGLRVAKDIAENNPGSRVLLATSETTIVGFKPPSAHRPYDLVGVALFGDGAGAMVIGSDPLPGTESPLFELHTAIQNFLPNTEKTIDGRLTEEGISFKLARELPQIVEDHIEGFCGQLTGVIGLSHKQYNKMFWAVHPGGPAILNRVEKRLDLHPNKLDASRRALEDYGNASSNSIVYVLDYMIEETLKMKTESLEPSEWGLILAFGPGVTFEGILARNLAV
As to B3, the hispidin-synthase activity result is “had hispidin-synthase activity” and the “hispidin-synthase activity, comparison among PKS” value was “highest activity”.

B4: SEQ ID NO: 123: type III polyketide synthase from Arabidopsis thaliana (protein, listed as Arabidopsis thaliana)
chain: MSNSRMNGVEKLSSKSTRRVANAGKATLLALGKAFPSQVVPQENLVEGFLRDTKCDDAFIKEKLEHLCKTTTVKTRYTVLTREILAKYPELTTEGSPTIKQRLEIANEAVVEMALEASLGCIKEWGRPVEDITHIVYVSSSEIRLPGGDLYLSAKLGLRNDVNRVMLYFLGCYGGVTGLRVAKDIAENNPGSRVLLTTSETTILGFRPPNKARPYDLVGAALFGDGAAAVIIGADPRECEAPFMELHYAVQQFLPGTQNVIEGRLTEEGINFKLGRDLPQKIEENIEEFCKKLMGKAGDESMEFNDMFWAVHPGGPAILNRLETKLKLEKEKLESSRRALVDYGNVSSNTILYVMEYMRDELKKKGDAAQEWGLGLAFGPGITFEGLLIRSLTSS
In the case of B4, the hispidin-synthase activity result is reported as “had hispidin-synthase activity” and the “hispidin-synthase activity, comparison among PKS” value was “highest activity”.

B5: SEQ ID NO: 137: plant type III polyketide synthase (PKS) (protein, listed as Piper methysticum)
chain: MSKTVEDRAAQRAKGPATVLAIGTATPANVVYQTDYPDYYFRVTKSEHMTKLKNKFQRMCDRSTIKKRYMVLTEELLEKNLSLCTYMEPSLDARQDILVPEVPKLGKEAADEAIAEWGRPKSEITHLIFCTTCGVDMPGADYQLTKLLGLRSSVRRTMLYQQGCFGGGTVLRLAKDLAENNAGARVLVVCSEITTAVNFRGPSDTHLDLLVGLALFGDGAAAVIVGADPDPTLERPLFQIVSGAQTILPDSEGAINGHLREVGLTIRLLKDVPGLVSMNIEKCLMEAFAPMGIHDWNSIFWIAHPGGPTILDQVEAKLGLKEEKLKSTRAVLREYGNMSSACVLFILDEVRKRSMEEGKTTTGEGFDWGVLFGFGPGFTVETVVLHSMPIPKADEGR
Turning to B5, the hispidin-synthase activity entry was “had hispidin-synthase activity”.

B6: SEQ ID NO: 127: plant type III polyketide synthase (PKS) (protein, listed as Physcomitrella patens)
chain: MSKTVEDRAAQRAKGPATVLAIGTATPANVVYQTDYPDYYFRVTKSEHMTKLKNKFQRMCDRSTIKKRYMVLTEELLEKNLSLCTYMEPSLDARQDILVPEVPKLGKEAADEAIAEWGRPKSEITHLIFCTTCGVDMPGADYQLTKLLGLRSSVRRTMLYQQGCFGGGTVLRLAKDLAENNAGARVLVVCSEITTAVNFRGPSDTHLDLLVGLALFGDGAAAVIVGADPDPTLERPLFQIVSGAQTILPDSEGAINGHLREVGLTIRLLKDVPGLVSMNIEKCLMEAFAPMGIHDWNSIFWIAHPGGPTILDQVEAKLGLKEEKLKSTRAVLREYGNMSSACVLFILDEVRKRSMEEGKTTTGEGFDWGVLFGFGPGFTVETVVLHSMPIPKADEGR
Regarding B6, the hispidin-synthase activity entry is given as “had hispidin-synthase activity”.

B7: SEQ ID NO: 125: type III polyketide synthase from Hydrangea macrophylla (protein, listed as Hydrangea macrophylla)
chain: MATKSVAVEEMCKAQKAGGPATILAIGTAVPSNCYYQSEYPDFYFRVTKSDHLTDLKSKFKRMCERSSIKKRYMHLTEEILEENPNMCTFAAPSIDGRQDIVVKEIPKLAKEAASKAIKEWGQPKSNITHLVFCTTSGVDMPGCDYQLTRLLGLRPSIKRLMMYQQGCHAGGTGLRLAKDLAENNKGARVLVVCSEMTVINFRGPSEAHMDSLVGQSLFGDGASAVIVGSDPDLSTEHPLYQIMSASQIIVADSEGAIDGHLRQEGLTFHLRKDVPSLVSDNIENTLVEAFTPILMDSIDSIIDWNSIFWIAHPGGPAILNQVQAKVGLKEEKLRVSRHILSEYGNMSSACVFFIMDEMRKRSMEEGKGTTGEGLEWGVLFGFGPGFTVETIVLHSVPI
For the molecule B7, the hispidin-synthase activity result was “had hispidin-synthase activity” and the “hispidin-synthase activity, comparison among PKS” value is given as “highest activity”.

B8: SEQ ID NO: 129: plant type III polyketide synthase (PKS) (protein, listed as Polygonum cuspidatum)
chain: MAPAVADIRKAQRAEGPATVLAIGTATPPNCVYQKDYPDYYFRVTNSDHMTDLKEKFRRMCEKSNIEKRYMYLTEEILKENPNMCSYMQTSSLDTRQDMVVSEVPRLGKEAAQKAIKEWGQPKSKITHVIMCTTSGVDMPGADYQLTKLLGLHPSVKRFMMYQQGCFAGGTVLRLAKDLAENNRGARVLVVCSEITAICFRGPTDTHPDSMVGQALFGDGSGAVIIGADPDLSIEKPIFELVWTAQTILPDSEGAIDGHLREVGLTFHLLKDVPGLISKNIEKNLTEAFSPLNVSDWNSLFWIAHPGGPAILDQVETKLGLKEEKLKATRQVLNDYGNMSSACVLFIMDEMRKKSVENGHATTGEGLEWGVLFGFGPGLTVETVVLHSVPVAN
In the case of B8, the hispidin-synthase activity result is given as “had hispidin-synthase activity”.
